# Assay results from PMC6519451.
# Columns and labels:
# [1] = target: reconstituted 26S proteasome (wild-type base, lid, Rpn10 and 20S core) (S. cerevisiae) (UniProt P33299)
# [2] = target: 26S proteasome reconstituted with Cy3-labeled base (Rpt1-I191AzF-Cy3) (S. cerevisiae) (UniProt P33299); experiment: FRET or BRET
"KM of multiple-turnover processing (Michaelis-Menten, anisotropy) [1]","τapp of tail insertion, fast phase [2]","kapp (1/τapp) of tail insertion, fast phase [2]",Substance
2 µM,,,ubiquitinated titin-I27^V15P-43-K-11 (from UniProt P0CG63 1-76)
,1.73 s,,"ubiquitinated titin-I27^V15P-23-K-25, Cy5-labeled (from UniProt P0CG63 1-76)"
,,1.4 s⁻¹,"ubiquitinated titin-I27^V15P-23-K-11, Cy5-labeled (from UniProt P0CG63 1-76)"
,1.61 s,0.62 s⁻¹,ubiquitinated titin-I27^V15P-23-K-35 modified with Cy5 on its unstructured tail (from UniProt P0CG63 1-76)
,7.15 s,,"ubiquitinated titin-I27^V15P-23-K-25 (serine rich), Cy5-labeled (from UniProt P0CG63 1-76)"
